# Reference: the supplement of paper PMC7125110
# ± gives the standard error. Variants at the floor of the assay were thinned out.
# B1: glmS ribozyme (parent)
# chain: AUAAAAGCGCCAGAACUACAGAAAUGUAGUUGACGAGGAGGAGGUUUAUCGAAUUUUCGGCGGAUGCCUCCAAA
# Legend:
# Conditions in all cases: with glucosamine-6-phosphate
# glucosamine-6-phosphate [1] = variants of: B1; assay: self-cleavage kobs at 40 uM GlcN6P; higher = faster cleavage; RNA array
# Summary of the method: (§1)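 Barcoded ribozyme variants on sequenced MiSeq chips were transcribed in situ by E. coli RNA polymerase and followed at 37 °C through a hybridised Cy3 probe. Glucosamine-6-phosphate at 40 μM to 10 mM in HEPES/KCl/Mg(OAc)2 buffer was flowed in, and tiles were imaged over ~14 h. Signals were normalised to baseline and to non-cleaving reference variants, and per-tile medians were fit to one- or two-exponential decays to give kobs. Weighted Michaelis–Menten fits across concentrations gave kcat and KM.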
# glucosamine-6-phosphate [2] = variants of: B1; assay: self-cleavage kobs at 640 uM GlcN6P; higher = faster cleavage; RNA array
# Summary of the method: as §1
# glucosamine-6-phosphate [3] = variants of: B1; assay: self-cleavage kobs at 160 uM GlcN6P; higher = faster cleavage; RNA array
# Summary of the method: as §1
# glucosamine-6-phosphate [4] = variants of: B1; assay: self-cleavage kobs at 2500 uM GlcN6P; higher = faster cleavage; RNA array
# Summary of the method: as §1
# glucosamine-6-phosphate [5] = variants of: B1; assay: self-cleavage kobs at 10000 uM GlcN6P; higher = faster cleavage; RNA array
# Summary of the method: as §1
Variant,self-cleavage kobs at 40 uM GlcN6P (glucosamine-6-phosphate [1]) [s⁻¹],self-cleavage kobs at 640 uM GlcN6P (glucosamine-6-phosphate [2]) [s⁻¹],self-cleavage kobs at 160 uM GlcN6P (glucosamine-6-phosphate [3]) [s⁻¹],self-cleavage kobs at 2500 uM GlcN6P (glucosamine-6-phosphate [4]) [s⁻¹],self-cleavage kobs at 10000 uM GlcN6P (glucosamine-6-phosphate [5]) [s⁻¹]
AUAAAAGAGCCAGAACUACAGAAAUGUAGUUGACGAGGAGGAGGUUUAUCGAGUUUUCGGCGAAUGCCUCCAAA,< 1e-05,< 1e-05,,,
AUAAAAGCGCAAGAACUACAGAAAUGUAGUUGACGAGGAGGAGGUUUAUCGAAUUUUCGGCGGAUGCAUCCAAA,< 1e-05,,,,
AUAAAAGCACGAGAACUACAGAAAUGUAGUUGACGAGGAGGAGGUUUAUCGAGUUUUCGGCGGAUGCCUCCAAA,< 1e-05,,,,
AUAAAAGCACCAGAACUACAGAAAUGUAGUUGACAAGGAGGAGGUUUAUCGAAUUUUCGGCGGAUGCCUCCAAA,< 1e-05,< 1e-05,< 1e-05,,
AUAAAAGCGCCAGAACUACAGAAAUGUAGUUGACGAGGAGGAGGUUUAUCGAAUUUUGGGCGGUUGCCUCCAAA,< 1e-05,< 1e-05,,< 1e-05,< 1e-05
AUAAAAGCGCCAGAAUUACAGAAAUGUAGUAGACGAGGAGGAGGUUUAUCGAAUUUUCGGCGGAUGCCUCCAAA,0.000621 ± 7.9e-05,0.00468 ± 0.00061,0.000862 ± 0.00014,0.00634 ± 0.0017,0.0168 ± 0.0026
AUAAAAGCGCCAGCGCUACAGAAAUGUAGUUGACGAGGAGGAGGUUUAUCGAAUUUUCGGCGGAUGCCUUCAAA,6.72e-05 ± 1.7e-05,0.000547 ± 0.00017,0.000124 ± 2.7e-05,0.00207 ± 0.00058,
AUAAAAGCGCCGGAACUACAGAAAUGUAGUUGACGAGGAGGAGGUUAAUCGAAUUUUCGACGGAUGCCUCCAAA,< 1e-05,< 1e-05,< 1e-05,,
AUAAAAGCGCCAGAACUACAGAAAUGUAGUUGAUGAGGAGGAGGUUUAUCGAAUUUUCGGCGGAAGGCUCCAAA,0.000176 ± 7.1e-05,,,,
AUAAAAGCGCCAGAACUACAGAAAUGUAGUUGACGAGGAUGAGGUUUAUCGAAUUUUCGGUGGAUGCCUCCAAA,< 1e-05,,< 1e-05,,
AUAAAAGCGCCAGAACUACAGAAAUGUAGUUGACAAGGAGGAGGUUUAUGGAAUAUUCGGGGGAUGCCUCCAAA,0.000205 ± 5.1e-05,,,,0.000255 ± 4e-05
AUAAAAGCGCCAGAACUACAGAAAUGUAGUUGACGAGGAGGAGGUUUAUCGAAUUUUCGGCGGAUGCUGCAAAA,< 1e-05,,,,
AUAAAAGCGCCUGAACUACAGAAAUGUAAUUGACGAGGAGGAGGUUUAUCGAAUUUUCGGCGGAUGCCUCCAAA,0.00084 ± 0.00025,0.00253 ± 0.00054,0.000905 ± 0.0002,0.00409 ± 0.0011,0.041 ± 0.012
AUAAAAGCGCCAGAACUACAGAAAUGUAGUUGCCGAGGAGGAGGUUUAUCGAAUUUUCGGCGGAGGCCUCCAAA,< 1e-05,< 1e-05,< 1e-05,,
